Series [1] addresses c-Src SH2. Put plainly: SH2 binding enrichment of the phosphorylated peptide, bacterial display (enrichment ratio); higher = better substrate or ligand; peptides without Tyr show the background.
The target in series [2] is SHP2-C SH2. Described as above.
In series [3] the target is Grb2 SH2 (UniProt P62993). The description is as above.
The target in series [4] is FGFR1 (UniProt P11362). The experiment in a line: phosphorylation enrichment, bacterial display (enrichment ratio); higher = better substrate or ligand; peptides without Tyr show the background.
Series [5] has as its target Jak2 (UniProt O60674). The series is described as above.
The target of series [6] is EPHB2 (UniProt P29323). The description is as above.
Chain of EPHB2 (P29323 whole entry, looked up): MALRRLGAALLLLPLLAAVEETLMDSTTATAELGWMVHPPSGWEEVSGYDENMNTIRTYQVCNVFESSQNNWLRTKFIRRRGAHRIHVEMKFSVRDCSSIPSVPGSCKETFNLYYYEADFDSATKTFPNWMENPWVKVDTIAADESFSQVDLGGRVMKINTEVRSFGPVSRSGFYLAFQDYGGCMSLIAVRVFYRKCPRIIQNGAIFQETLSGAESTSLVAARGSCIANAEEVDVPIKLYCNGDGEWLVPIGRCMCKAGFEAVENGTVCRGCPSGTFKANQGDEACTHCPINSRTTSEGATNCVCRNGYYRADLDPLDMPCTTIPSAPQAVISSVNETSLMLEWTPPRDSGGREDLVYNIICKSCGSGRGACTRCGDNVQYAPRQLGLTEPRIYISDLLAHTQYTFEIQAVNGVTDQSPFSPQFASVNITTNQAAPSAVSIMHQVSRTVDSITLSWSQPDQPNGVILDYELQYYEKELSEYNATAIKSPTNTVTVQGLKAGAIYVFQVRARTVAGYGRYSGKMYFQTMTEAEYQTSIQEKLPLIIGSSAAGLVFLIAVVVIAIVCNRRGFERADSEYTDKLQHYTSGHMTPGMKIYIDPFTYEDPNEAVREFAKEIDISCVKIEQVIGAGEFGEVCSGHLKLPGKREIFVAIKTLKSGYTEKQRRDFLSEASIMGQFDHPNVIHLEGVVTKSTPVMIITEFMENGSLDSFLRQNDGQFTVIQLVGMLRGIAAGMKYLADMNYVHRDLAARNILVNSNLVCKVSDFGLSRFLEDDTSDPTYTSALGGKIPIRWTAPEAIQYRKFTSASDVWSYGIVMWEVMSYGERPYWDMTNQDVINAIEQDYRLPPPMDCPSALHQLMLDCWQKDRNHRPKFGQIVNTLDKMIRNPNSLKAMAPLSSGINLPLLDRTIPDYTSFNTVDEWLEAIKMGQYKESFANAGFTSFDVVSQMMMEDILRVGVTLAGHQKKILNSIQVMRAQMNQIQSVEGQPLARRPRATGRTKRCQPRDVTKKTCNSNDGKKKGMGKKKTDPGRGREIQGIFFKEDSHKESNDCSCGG
Series [7] deals with c-Abl (mouse). The series is described as above.
Series [8] deals with MERTK (UniProt Q12866). Described as above.
Chain of MERTK (Q12866 whole entry, looked up): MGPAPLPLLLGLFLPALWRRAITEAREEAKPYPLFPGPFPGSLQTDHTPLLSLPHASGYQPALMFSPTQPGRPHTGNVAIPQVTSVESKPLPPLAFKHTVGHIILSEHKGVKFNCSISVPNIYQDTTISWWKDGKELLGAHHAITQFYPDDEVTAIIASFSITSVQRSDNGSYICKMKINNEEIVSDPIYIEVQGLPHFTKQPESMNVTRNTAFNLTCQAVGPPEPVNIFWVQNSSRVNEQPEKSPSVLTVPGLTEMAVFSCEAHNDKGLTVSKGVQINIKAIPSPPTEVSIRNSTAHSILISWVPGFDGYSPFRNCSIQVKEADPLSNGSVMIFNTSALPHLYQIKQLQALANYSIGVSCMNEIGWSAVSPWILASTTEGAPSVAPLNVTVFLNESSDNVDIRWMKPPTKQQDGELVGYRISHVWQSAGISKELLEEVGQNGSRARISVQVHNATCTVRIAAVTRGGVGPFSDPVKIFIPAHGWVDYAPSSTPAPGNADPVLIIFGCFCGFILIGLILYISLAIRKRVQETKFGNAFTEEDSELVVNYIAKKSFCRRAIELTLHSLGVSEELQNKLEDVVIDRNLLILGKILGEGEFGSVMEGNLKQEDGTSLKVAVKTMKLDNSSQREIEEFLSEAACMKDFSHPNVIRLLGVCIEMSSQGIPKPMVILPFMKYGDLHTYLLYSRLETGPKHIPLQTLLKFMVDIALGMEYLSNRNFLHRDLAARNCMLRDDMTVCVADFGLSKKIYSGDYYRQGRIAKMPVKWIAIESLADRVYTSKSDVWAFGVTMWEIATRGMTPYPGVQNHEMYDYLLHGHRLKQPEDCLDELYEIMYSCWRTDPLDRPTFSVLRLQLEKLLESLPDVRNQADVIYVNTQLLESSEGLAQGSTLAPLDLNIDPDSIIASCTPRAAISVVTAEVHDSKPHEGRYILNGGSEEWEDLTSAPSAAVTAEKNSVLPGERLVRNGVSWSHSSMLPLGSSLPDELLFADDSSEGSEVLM
Series [9] concerns the target FGFR3 (UniProt P22607). The description is as above.
The test system of series [10] is AncSZ. The series is described as above.
Series [11] deals with Hck (UniProt P08631). Described as above.
Chain of Hck (P08631 whole entry, looked up): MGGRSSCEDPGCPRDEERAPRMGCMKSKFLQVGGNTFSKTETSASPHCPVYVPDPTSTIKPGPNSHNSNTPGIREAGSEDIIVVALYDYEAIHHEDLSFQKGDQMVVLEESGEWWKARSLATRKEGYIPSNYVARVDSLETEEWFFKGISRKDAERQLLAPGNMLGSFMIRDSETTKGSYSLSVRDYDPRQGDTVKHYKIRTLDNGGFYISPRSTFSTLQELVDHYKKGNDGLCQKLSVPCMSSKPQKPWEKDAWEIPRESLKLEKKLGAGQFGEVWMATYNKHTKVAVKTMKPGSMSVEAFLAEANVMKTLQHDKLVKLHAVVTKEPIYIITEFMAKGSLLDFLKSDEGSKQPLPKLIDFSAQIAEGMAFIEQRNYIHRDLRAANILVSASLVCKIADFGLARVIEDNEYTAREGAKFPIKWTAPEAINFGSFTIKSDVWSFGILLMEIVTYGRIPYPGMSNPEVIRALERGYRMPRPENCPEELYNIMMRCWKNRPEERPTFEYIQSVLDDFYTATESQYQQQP
The target of series [12] is Fes (UniProt P07332). The series is described as above.
In series [13] the target is EPHB1 (UniProt P54762). The series is described as above.
Chain of EPHB1 (P54762 whole entry, looked up): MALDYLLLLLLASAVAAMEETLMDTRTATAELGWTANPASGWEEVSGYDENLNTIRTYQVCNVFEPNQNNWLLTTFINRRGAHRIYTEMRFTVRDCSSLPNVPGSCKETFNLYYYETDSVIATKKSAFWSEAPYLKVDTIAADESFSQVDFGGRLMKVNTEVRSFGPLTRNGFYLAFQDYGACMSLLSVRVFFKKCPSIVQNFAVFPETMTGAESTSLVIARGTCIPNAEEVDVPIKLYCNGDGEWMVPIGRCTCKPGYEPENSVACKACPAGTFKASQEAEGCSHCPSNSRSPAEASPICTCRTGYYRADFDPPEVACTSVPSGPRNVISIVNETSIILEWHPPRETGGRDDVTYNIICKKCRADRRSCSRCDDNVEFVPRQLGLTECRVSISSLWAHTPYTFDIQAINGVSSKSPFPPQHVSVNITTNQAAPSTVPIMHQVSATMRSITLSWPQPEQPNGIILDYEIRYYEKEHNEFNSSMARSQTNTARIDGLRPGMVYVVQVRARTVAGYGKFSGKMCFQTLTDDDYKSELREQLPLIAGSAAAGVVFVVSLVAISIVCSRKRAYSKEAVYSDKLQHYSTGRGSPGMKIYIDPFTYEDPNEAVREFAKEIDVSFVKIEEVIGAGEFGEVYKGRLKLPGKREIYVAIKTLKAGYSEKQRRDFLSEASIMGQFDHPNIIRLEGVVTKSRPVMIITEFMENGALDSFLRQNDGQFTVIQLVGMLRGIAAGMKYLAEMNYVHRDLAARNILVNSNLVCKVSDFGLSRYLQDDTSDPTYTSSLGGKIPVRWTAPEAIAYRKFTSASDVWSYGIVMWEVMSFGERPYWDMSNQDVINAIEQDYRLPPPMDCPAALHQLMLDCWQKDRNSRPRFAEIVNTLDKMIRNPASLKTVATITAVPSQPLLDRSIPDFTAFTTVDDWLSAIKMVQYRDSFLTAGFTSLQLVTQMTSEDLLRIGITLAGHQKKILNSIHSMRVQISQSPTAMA
The target in series [14] is Fyn (UniProt P06241). The series is described as above.
Chain of Fyn (P06241 whole entry, looked up): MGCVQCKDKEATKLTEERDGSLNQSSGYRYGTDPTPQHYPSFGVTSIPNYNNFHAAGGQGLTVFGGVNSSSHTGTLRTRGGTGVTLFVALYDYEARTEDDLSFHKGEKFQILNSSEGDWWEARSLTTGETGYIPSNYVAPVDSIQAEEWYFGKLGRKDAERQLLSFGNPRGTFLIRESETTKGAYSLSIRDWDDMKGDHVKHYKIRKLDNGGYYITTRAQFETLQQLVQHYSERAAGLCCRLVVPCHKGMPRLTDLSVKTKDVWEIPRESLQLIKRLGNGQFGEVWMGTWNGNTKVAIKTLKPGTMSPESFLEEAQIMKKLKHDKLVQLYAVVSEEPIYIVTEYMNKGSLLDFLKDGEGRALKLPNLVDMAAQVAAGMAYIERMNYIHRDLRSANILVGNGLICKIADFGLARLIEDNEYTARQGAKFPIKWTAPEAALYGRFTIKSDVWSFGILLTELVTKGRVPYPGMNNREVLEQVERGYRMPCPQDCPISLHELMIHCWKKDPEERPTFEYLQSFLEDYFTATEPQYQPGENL
For series [15], the system named is c-Src. The description is as above.
For series [16], the system named is Fer (mouse). The description is as above.

Seven sequences from the supplement of paper PMC10065799, “High-throughput profiling of sequence recognition by tyrosine kinases and SH2 domains using bacterial peptide display” (eLife, 2023) can be followed below.
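Throughout, for SH2 binding enrichment of the phosphorylated peptide, bacterial display: peptide library displayed on the E. coli surface as eCPX fusions, selected cells deep-sequenced, score is each peptide's frequency after selection divided by its frequency in the input.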
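Throughout, for phosphorylation enrichment, bacterial display: 11-residue human phosphosite peptides and single-mutation variants displayed on the E. coli surface, counted by deep sequencing, each peptide's frequency after selection divided by its frequency in the unselected input library; frequency after pTyr selection over input frequency; kinase dosed for 20-30% of maximal phosphorylation in three min.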

Chain of FGFR3 (P22607 whole entry, looked up): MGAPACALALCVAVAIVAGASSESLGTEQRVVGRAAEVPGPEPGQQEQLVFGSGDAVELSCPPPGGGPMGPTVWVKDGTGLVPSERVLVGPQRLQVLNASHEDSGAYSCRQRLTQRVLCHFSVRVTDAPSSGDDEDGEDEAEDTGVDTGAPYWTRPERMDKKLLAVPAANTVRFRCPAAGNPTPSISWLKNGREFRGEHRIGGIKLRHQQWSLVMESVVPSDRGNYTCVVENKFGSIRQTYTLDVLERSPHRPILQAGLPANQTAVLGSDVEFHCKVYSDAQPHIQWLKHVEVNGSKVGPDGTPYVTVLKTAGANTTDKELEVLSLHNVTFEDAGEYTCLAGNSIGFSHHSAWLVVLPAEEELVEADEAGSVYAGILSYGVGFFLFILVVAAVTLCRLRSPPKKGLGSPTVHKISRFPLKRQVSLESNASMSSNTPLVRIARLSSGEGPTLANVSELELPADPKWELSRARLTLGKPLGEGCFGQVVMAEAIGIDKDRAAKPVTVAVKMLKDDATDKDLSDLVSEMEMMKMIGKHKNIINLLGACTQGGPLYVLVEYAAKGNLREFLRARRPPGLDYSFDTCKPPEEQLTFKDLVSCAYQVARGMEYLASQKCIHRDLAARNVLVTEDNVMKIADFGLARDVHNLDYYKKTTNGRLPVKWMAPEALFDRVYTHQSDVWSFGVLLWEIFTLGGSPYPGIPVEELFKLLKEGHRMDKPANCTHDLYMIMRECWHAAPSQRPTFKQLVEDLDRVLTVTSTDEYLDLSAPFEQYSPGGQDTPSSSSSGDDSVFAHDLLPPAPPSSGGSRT

Regarding AHAGEYGAEAL [HBA1_Y25], the SH2 binding enrichment in series [1] stood at 0.396; in series [2], 0.676; in series [3], 0.683. Moreover, the phosphorylation enrichment in series [4] was 0.35; in series [5] it was 0.66; in series [6], 0.394; in [7], 0.629; in series [8], 0.343; in series [9], 0.517. The phosphorylation enrichment in series [10] was 0.675; in series [11] it was 0.464; in [12] it was 0.816; in [13], 0.368; in series [14], 0.387; in series [15], 0.392. For the same sequence, in series [16], the phosphorylation enrichment worked out at 0.382.
For the sequence AHAGEYGEEAL [HBA1_Y25_A27E], the SH2 binding enrichment in [1] stood at 0.473; in [2], 0.599; in series [3], 0.745. Also, the phosphorylation enrichment in series [4] amounted to 0.66; in series [5], 1.35; in series [6], 0.736; in [7], 1.01; in series [8] it was 0.544; in [9], 0.793. In addition, the phosphorylation enrichment in [10] was determined as 1.25; in series [11] it was 0.821; in series [12], 1.47; in [13], 0.664; in [14] it was 0.576; in [15] it was 0.582. Further, in series [16], the phosphorylation enrichment came out at 0.615.
As to AISEGYKDFRA [CDA_Y79_V75I], the SH2 binding enrichment worked out at 0.31 in series [1], 0.536 in [2] and 0.829 in series [3]. The phosphorylation enrichment amounted to 0.425 in series [4]; 0.617 in series [5]; 0.415 in [6]; 0.622 in [7]; 0.382 in [8]; 0.524 in series [9]. For the same sequence, the phosphorylation enrichment in series [10] was found to be 0.617; in [11], 0.405; in [12], 0.638; in [13], 0.353; in series [14], 0.323; in [15] it was 0.499. Moreover, the phosphorylation enrichment in series [16] turned out to be 0.313.
Take AKRKNYAPVTM [CFAP47_Y557_A561T]: the SH2 binding enrichment came to 1.19 in series [1], 1.16 in series [2] and 1.03 in series [3]. In addition, the phosphorylation enrichment in series [4] stood at 0.418; in series [5], 0.351; in series [6], 0.364; in [7], 0.454; in [8], 0.431; in series [9], 0.34. Besides, the phosphorylation enrichment is 0.459 in series [10]; 0.371 in series [11]; 0.518 in series [12]; 0.365 in [13]; 0.387 in series [14]; 0.445 in series [15]. Further, in series [16], the phosphorylation enrichment is 0.286.
With ALETLYKKAVK [CC2D2A_Y381_E376A], the values for the SH2 binding enrichment in series [1], in series [2] and in series [3] were 0.511, 0.599 and 0.889, respectively. Besides, the phosphorylation enrichment amounted to 0.405 in [4]; 0.603 in series [5]; 0.366 in series [6]; 0.463 in series [7]; 0.338 in series [8]; 0.475 in series [9]. In addition, the phosphorylation enrichment came out at 0.559 in series [10]; 0.396 in [11]; 0.864 in series [12]; 0.348 in series [13]; 0.342 in series [14]; 0.307 in series [15]. Moreover, the phosphorylation enrichment in series [16] was determined as 0.446.
Turning to ALIKAYVKAVA [SMN1_Y43_D44V], the SH2 binding enrichment in series [1] worked out at 0.412; in series [2], 0.676; in series [3], 0.756. Moreover, the phosphorylation enrichment in [4] stood at 0.623; in [5], 1.12; in series [6], 0.534; in series [7], 0.68; in [8], 0.481; in series [9], 0.639. The phosphorylation enrichment came to 0.966 in [10]; 0.464 in series [11]; 0.995 in [12]; 0.65 in [13]; 0.462 in series [14]; 0.557 in series [15]. The phosphorylation enrichment in series [16] was found to be 0.445.
Consider ALVDTYCRHNF [HLA-DRB1_Y107_A103L_YF], for which the SH2 binding enrichment in series [1] amounted to 0.711; in series [2] it was 0.845; in series [3], 0.991. In addition, the phosphorylation enrichment in series [4] was determined as 0.472; in series [5] it was 0.847; in [6] it was 0.613; in series [7], 0.683; in series [8], 0.549; in series [9], 0.682. Also, the phosphorylation enrichment was found to be 0.782 in series [10]; 0.577 in series [11]; 0.935 in series [12]; 0.55 in [13]; 0.454 in series [14]; 0.538 in [15]. The phosphorylation enrichment in [16] was found to be 0.588.
